Consider eight molecules from patent publication US20230212319A1, “NOVEL ANTIGEN BINDING DOMAINS AND SYNTHETIC ANTIGEN RECEPTORS INCORPORATING THE SAME” (University of Southern California, priority 2020, published 2023).

To fix the notation:
B1: 10522 (protein)
chain: MALPVTALLLPLALLLHAARPDIQMTQSPSSLSASVGDRVTITCRASQDISNYLNWYQQKPGKAPKLLIYYTSRLHSGVPSRFSGSGSGTDFTLTISSLQPEDFATYYCQQGNTLPYTFGQGTKVEIKRLEDLKNVFPPEVAVFEPSEAEISHTQKATLVCLATGFYPDHVELSWWVNGKEVHSGVCTDPQPLKEQPALNDSRYCLSSRLRVSATFWQNPRNHFRCQVQFYGLSENDEWTQDRAKPVTQIVSAEAWGRADCGFTSESYQQGVLSATILYEILLGKATLYAVLVSALVLMAMVKRKDSRGRAKRSGSGATNFSLLKQAGDVEENPGPTSMDWIWRILFLVGAATGAHSFEEVQLVESGGGLVQPGGSLRLSCAASGYTFSDYFMSWVRQAPGKGLEWVATISNGGTYTYYPDSVKGRFTISRDNSKNTLYLQMNSLRAEDTAVYYCARFDGYIFDYWGQGTLVTVSSTRIQNPDPAVYQLRDSKSSDKSVCLFTDFDSQTNVSQSKDSDVYITDKCVLDMRSMDFKSNSAVAWSNKSDFACANAFNNSIIPEDTFFPSPESSCDVKLVEKSFETDTNLNFQNLSVIGFRILLLKVAGFNLLMTLRLWSS
modifications: Synthetic Polynucloetide
B2: 10591 (protein)
chain: B1 chain with N52S, Y386F
modifications: Synthetic Polynucloetide
B3: 10660 (protein)
chain: B1 chain with Y117W, Y386F
modifications: Synthetic Polynucloetide
B4: 10453 (protein)
chain: MALPVTALLLPLALLLHAARPEVQLVESGGGLVQPGGSLRLSCAASGYTFTTYWMHWVRQAPGKGLEWVGYIRPSTGYTEYNQKFKDRFTISADTSKNTAYLQMNSLRAEDTAVYYCARSRWLLDYWGQGTLVTVSLEDLKNVFPPEVAVFEPSEAEISHTQKATLVCLATGFYPDHVELSWWVNGKEVHSGVCTDPQPLKEQPALNDSRYCLSSRLRVSATFWQNPRNHFRCQVQFYGLSENDEWTQDRAKPVTQIVSAEAWGRADCGFTSESYQQGVLSATILYEILLGKATLYAVLVSALVLMAMVKRKDSRGRAKRSGSGATNFSLLKQAGDVEENPGPTSMDWIWRILFLVGAATGAHSFEDIQMTQSPSSLSASVGDRVTITCKSSQSLLYSSNQKNYLAWFQQKPGKAPKLLIYWASTRESGVPSRFSGSGSGTDFTLTISSLQPEDFATYFCHQYLSSYTFGQGTKVEIKRTRIQNPDPAVYQLRDSKSSDKSVCLFTDFDSQTNVSQSKDSDVYITDKCVLDMRSMDFKSNSAVAWSNKSDFACANAFNNSIIPEDTFFPSPESSCDVKLVEKSFETDTNLNFQNLSVIGFRILLLKVAGFNLLMTLRLWSS
modifications: Synthetic Polynucloetide
B5: 10384 (protein)
chain: MALPVTALLLPLALLLHAARPDIQMTQSPSSLSASVGDRVTITCKSSQSVLYSSNQKNYLAWFQQKPGKAPKLLIYWASTRESGVPSRFSGSGSGTDFTLTISSLQPEDFATYFCHQYLSSYTFGQGTKVEIKRLEDLKNVFPPEVAVFEPSEAEISHTQKATLVCLATGFYPDHVELSWWVNGKEVHSGVCTDPQPLKEQPALNDSRYCLSSRLRVSATFWQNPRNHFRCQVQFYGLSENDEWTQDRAKPVTQIVSAEAWGRADCGFTSESYQQGVLSATILYEILLGKATLYAVLVSALVLMAMVKRKDSRGRAKRSGSGATNFSLLKQAGDVEENPGPTSMDWIWRILFLVGAATGAHSFEEVQLVESGGGLVQPGGSLRLSCAASGFTFTTYWMHWVRQAPGKGLEWVGYIRPSTGYTEYNQKFKDRFTISADTSKNTAYLQMNSLRAEDTAVYYCARSRWLLDYWGQGTLVTVSTRIQNPDPAVYQLRDSKSSDKSVCLFTDFDSQTNVSQSKDSDVYITDKCVLDMRSMDFKSNSAVAWSNKSDFACANAFNNSIIPEDTFFPSPESSCDVKLVEKSFETDTNLNFQNLSVIGFRILLLKVAGFNLLMTLRLWSS
modifications: Synthetic Polynucloetide
B6: 10311 (protein)
chain: MALPVTALLLPLALLLHAARPEVQLVESGGGLVQPGGSLRLSCAASGYTFTSYWLHWVRQAPGKGLEWVGYIRPSTGYTEYNQKFKDRFTISADTSKNTAYLQMNSLRAEDTAVYYCARSRWLLDYWGQGTLVTVSSGGGGSGGGGSGGGGSDIQMTQSPSSLSASVGDRVTITCKSSQSLLYSSNQKNYLAWFQQKPGKAPKLLIYWASTRESGVPSRFSGSGSGTDFTLTISSLQPEDFATYFCHQYLSSYTFGQGTKVEIKRTREQKLISEEDLAKPTTTPAPRPPTPAPTIASQPLSLRPEACRPAAGGAVHTRGLDFACDIYIWAPLAGTCGVLLLSLVITLYCKRGRKKLLYIFKQPFMRPVQTTQEEDGCSCRFPEEEEGGCELRVKFSRSADAPAYQQGQNQLYNELNLGRREEYDVLDKRRGRDPEMGGKPRRKNPQEGLYNELQKDKMAEAYSEIGMKGERRRGKGHDGLYQGLSTATKDTYDALHMQALPPR
modifications: Synthetic Polynucloetide
B7: 10380 (protein)
chain: MALPVTALLLPLALLLHAARPEVQLVESGGGLVQPGGSLRLSCAASGFTFTTYWMHWVRQAPGKGLEWVGYIRPSTGYTEYNQKFKDRFTISADTSKNTAYLQMNSLRAEDTAVYYCARSRWLLDYWGQGTLVTVSGGGGSGGGGSGGGGSDIQMTQSPSSLSASVGDRVTITCKSSQSVLYSSNQKNYLAWFQQKPGKAPKLLIYWASTRESGVPSRFSGSGSGTDFTLTISSLQPEDFATYFCHQYLSSYTFGQGTKVEIKRTREQKLISEEDLAKPTTTPAPRPPTPAPTIASQPLSLRPEACRPAAGGAVHTRGLDFACDIYIWAPLAGTCGVLLLSLVITLYCKRGRKKLLYIFKQPFMRPVQTTQEEDGCSCRFPEEEEGGCELRVKFSRSADAPAYQQGQNQLYNELNLGRREEYDVLDKRRGRDPEMGGKPRRKNPQEGLYNELQKDKMAEAYSEIGMKGERRRGKGHDGLYQGLSTATKDTYDALHMQALPPR
modifications: Synthetic Polynucloetide
B8: 22151 (protein)
chain: MALPVTALLLPLALLLHAARPMLPAPKNLVVSRITEDSARLSWTAPDAAFDSFPIRYIETLIWGEAIWLDVPGSERSYDLTGLKPGTEYAVVITGVKGGRFSSPLVASFTTGTGGGGSGGGGSGGGGSEFSYVLTQPPSVSVAPGQTARITCGGNNIGGKSVHWYQQPPGQAPVVVVYDDSDRPSGIPERFSGSNSGNTATLTISRVEAGDEAVYYCQVWDSSSDHVVFGGGTKLTVLLEDLKNVFPPEVAVFEPSEAEISHTQKATLVCLATGFYPDHVELSWWVNGKEVHSGVCTDPQPLKEQPALNDSRYCLSSRLRVSATFWQNPRNHFRCQVQFYGLSENDEWTQDRAKPVTQIVSAEAWGRADCGFTSESYQQGVLSATILYEILLGKATLYAVLVSALVLMAMVKRKDSRGRAKRSGSGATNFSLLKQAGDVEENPGPTSMDWIWRILFLVGAATGAHSFEQLQLQESGPGLVKPSETLSLTCTVSGGSISSSSYFWGWIRQPPGKGLEWIGSIYYSGITYYNPSLKSRVTISVDTSKNQFSLKLSSVTAADTAVYYCARHDGAVAGLFDYWGQGTLVTVSSATRIQNPDPAVYQLRDSKSSDKSVCLFTDFDSQTNVSQSKDSDVYITDKCVLDMRSMDFKSNSAVAWSNKSDFACANAFNNSIIPEDTFFPSPESSCDVKLVEKSFETDTNLNFQNLSVIGFRILLLKVAGFNLLMTLRLWSSRAKRSGSGVKQTLNFDLLKLAGDVESNPGPSRGHMTEYKPTVRLATRDDVPRAVRTLAAAFADYPATRHTVDPDRHIERVTELQELFLTRVGLDIGKVWVADDGAAVAVWTTPESVEAGAVFAEIGPRMAELSGSRLAAQQQMEGLLAPHRPKEPAWFLATVGVSPDHQGKGLGSAVVLPGVEAAERAGVPAFLETSAPRNLPFYERLGFTVTADVEVPEGPRTWCMTRKPGA

Residue numbers refer to the chain shown, from its start.

One assay concerns SKOV3-Luc cells. Description: SKOV3 xenograft in NSG mice. Particulars: 1 × 10^6 SKOV3-Luc s.c., a week later 3 × 10^6 SAR-T i.v.
Turning to B1, the “tumor inhibition / protection, SKOV3 xenograft” value (shortened to “tumor inhibition / protection”) is given as “tumor inhibition”.
On to B2, for which the “tumor inhibition / protection” value is “tumor inhibition”.
For B3, the “tumor inhibition / protection” value is “tumor inhibition”.
Still for that read-out and setting: then B4, with “tumor inhibition”.
As to B5, the “tumor inhibition / protection” value is on record as “tumor inhibition”.
On the same count and under the same terms, then B6, with “weak protection”; and B7, with “weak protection”.

Still in this assay, the particulars now being: mouse, in vivo.
For the molecule B1, the “survival, SKOV3 xenograft” value was “improvement in survival”.
With B2, the “survival, SKOV3 xenograft” value is “improvement in survival”.
Still for that read-out and setting: then B3, with “improvement in survival”; and B4, with “improvement in survival”.
As for B5, the “survival, SKOV3 xenograft” value is reported as “improvement in survival”.

The next assay relates to L363 cells. Description: JNG assay, co-culture with L363 cells. Format: cell-based. Particulars: co-culture with L363. The gist of the method:
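Read-out is NFAT-driven GFP measured by flow cytometry after ~4–18 h co-culture of SAR-expressing JNG cells with target cells (E:T about 1:2). SARs were introduced by lentiviral spinfection and selected with puromycin or blasticidin when possible; scores (+/- to 5+ ≈ 5–50% GFP+) are relative to parental JNG cells.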
As to B8, the “NFAT-GFP ASSAY: L363” value is 2+ (refer to approximately 5%, 10%, 20%, 30%, 40% and 50% GFP positive cells).

For the next assay, the system named is U266 cells. Description: JNG NFAT-GFP induction on co-culture with U266. Format: cell-based.
Conditions: not given
For B8, the “NFAT-GFP ASSAY: U266” value was 4+ (refer to approximately 5%, 10%, 20%, 30%, 40% and 50% GFP positive cells).
